The test system of the series is Actin of lily pollen tubes.

As for iodoacetylated (IAc-) RNase B1, the “lily pollen tube length after 1.5 h in vitro (FIG. 31; control 0.26 mm)” value is “IAc RNase B1 inhibits pollen tubes growth in a similar manner of non-modified RNase B1”. In the case of RNase B1 boiled for 30 minutes, the “lily pollen tube length after 2 h in vitro (control without RNase about 300 µm)” value is “Boiling or autoclaving the RNase yielded pollen tubes of 130 and 170 µm in length, respectively”. Still for that read-out and setting: with autoclaved RNase B1 the entry was “Boiling or autoclaving the RNase yielded pollen tubes of 130 and 170 µm in length, respectively”. Take “Aspergillus niger B1 extracellular RNase (RNase B1)”: the “actin filaments distribution in lily pollen tubes (TRITC-phalloidin staining)” value was “in RNase-treated pollen tubes masses of actin were accumulated at the tip cell wall”; the “lily pollen tube length after 1.5 h in vitro (FIG. 31; control 0.26 mm)” value was “Both RNase B1 and IAc-RNase B1 exhibited a clear inhibitory effect on pollen tube growth”; the “lily pollen tube length after 2 h in vitro (control without RNase about 300 µm)” value is reported as “reached only 160 µm in length”.
